Consider 13 molecules from patent US20230287598A1 (TAURUS BIOSCIENCES, published 2023).

Substitutions are numbered along the chain they refer to. Numbers in names are those of the source.

T1: CXCR1 (UniProt P25024 1-350, limits assumed)
T1 construct: whole, on cells; DiscoveRx PathHunter cell line; any reporter tag on the receptor is not described; also called CXCR1 receptor; CXCR1-U2OS
T1 sequence (looked up): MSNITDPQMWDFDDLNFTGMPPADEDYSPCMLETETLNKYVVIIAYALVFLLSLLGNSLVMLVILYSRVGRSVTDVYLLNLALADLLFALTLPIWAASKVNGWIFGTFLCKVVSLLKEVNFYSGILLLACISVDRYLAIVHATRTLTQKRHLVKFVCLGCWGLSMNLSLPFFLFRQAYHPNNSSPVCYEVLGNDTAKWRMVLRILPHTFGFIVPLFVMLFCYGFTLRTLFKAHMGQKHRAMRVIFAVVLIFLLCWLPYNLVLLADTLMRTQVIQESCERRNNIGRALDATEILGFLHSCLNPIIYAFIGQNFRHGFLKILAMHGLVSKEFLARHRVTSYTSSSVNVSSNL

B1: VH4-34+CDR3-IL8_CDR1 Cow / VL1-51 S2A, T5N, P8S, A12G, A13S, P14L, K46R, L47T, D51G, N52D, N53T IgG (antibody)
VH: QVQLQQWGAGLLKPSETLSLTCTASGFSLSDKAVGWIRQPPGKGLEWIGEINHSGSTNYNPSLKSRVTISVDTSKNQFSLKLSSVTAADTAVYYCTSVHQETKKYQSPRSAKELRCQCIKTYSKPFHPKFIKELRVIESGPHCANTEIIVKLSDGRELCLDPKENWVQRVVEKFLKRAENSGSGSYTYNYEWHVDVWGQGLLVTVSSAS
light: QAVLNQPSSVSGSLGQKVTISCSGSSSNIGNNYVSWYQQLPGTAPRTLIYGDTKRPSGIPDRFSGSKSGTSATLGITGLQTGDEADYYCASAEDSSSNAVFGSGTTLTVLGQPKAAPSVTLFPPSSEELQANKATLVCLISDFYPGAVTVAWKADSSPVKAGVETTTPSKQSNNKYAASSYLSLTPEQWKSHRSYSCQVTHEGSTVEKTVAPTECS
B2: VH4-34+CDR3-IL8_CDR2 E50S / VL1-51 S2A, T5N, P8S, A12G, A13S, P14L IgG (antibody)
VH: QVQLQQWGAGLLKPSETLSLTCAVYGGSFSGYYWSWIRQPPGKGLEWIGSINHSGSTNYNPSLKSRVTISVDTSKNQFSLKLSSVTAADTAVYYCTSVHQETKKYQSPRSAKELRCQCIKTYSKPFHPKFIKELRVIESGPHCANTEIIVKLSDGRELCLDPKENWVQRVVEKFLKRAENSGSGSYTYNYEWHVDVWGQGLLVTVSSAS
light: B1 light with R46K, T47L, G51D, D52N, T53N
B3: VH4-34+CDR3-IL8_CDR2 Cow / VL1-51 S2A, T5N, P8S, A12G, A13S, P14L, D51G, N52D, N53T IgG (antibody)
VH: B2 VH with I48L, N52D, H53T, S54G, S56N, N58G
light: B1 light with R46K, T47L
notes: nt HC 433, LC 444
B4: VH4-34+CDR3-IL8_CDR1 Cow_CDR2 Cow / VL1-51 S2A, T5N, P8S, A12G, A13S, P14L, D51G, N52D, N53T IgG (antibody)
VH: B1 VH with I48L, E50S, N52D, H53T, S54G, S56N, N58G
light: B1 light with R46K, T47L
B5: VH4-34+CDR3-IL8_CDR1-Cow / VL1-51 S2A, T5N, P8S, A12G, A13S, P14L IgG (antibody)
VH: B1 VH
light: B1 light with R46K, T47L, G51D, D52N, T53N
notes: also called BID 34
B6: VH4-34+CDR3-IL8_CDR2 E50S / VL1-51 S2A, T5N, P8S, A12G, A13S, P14L, K46R, L47T, D51G, N52D, N53T IgG (antibody)
VH: B2 VH
light: B1 light
B7: VH4-34+CDR3-IL8_CDR1 G31D,Y32K_CDR2 E50S / VL1-51 S2A, T5N, P8S, A12G, A13S, P14L, D51G, N52D, N53T IgG (antibody)
VH: B2 VH with G31D, Y32K
light: B1 light with R46K, T47L
B8: VH4-34+CDR3-IL8_CDR1 Cow_CDR2 E50S / VL1-51 S2A, T5N, P8S, A12G, A13S, P14L IgG (antibody)
VH: B1 VH with E50S
light: B1 light with R46K, T47L, G51D, D52N, T53N
B9: VH4-34+CDR3-IL8_CDR1 G31D,Y32K_CDR2 E50S / VL1-51 S2A, T5N, P8S, A12G, A13S, P14L IgG (antibody)
VH: B2 VH with G31D, Y32K
light: B1 light with R46K, T47L, G51D, D52N, T53N
B10: VH4-34+CDR3-IL8_CDR1 G31D,Y32K / VL1-51 S2A, T5N, P8S, A12G, A13S, P14L IgG (antibody)
VH: B2 VH with G31D, Y32K, S50E
light: B1 light with R46K, T47L, G51D, D52N, T53N
B11: VH4-34+CDR3-IL8_CDR1 G31D,Y32K / VL1-51 S2A, T5N, P8S, A12G, A13S, P14L, K46R, L47T, D51G, N52D, N53T IgG (antibody)
VH: B2 VH with G31D, Y32K, S50E
light: B1 light
notes: nt HC 434, LC 486
B12: VH4-34+CDR3-IL8_CDR1 Cow_CDR2 E50S / VL1-51 S2A, T5N, P8S, A12G, A13S, P14L, K46R, L47T, D51G, N52D, N53T IgG (antibody)
VH: B1 VH with E50S
light: B1 light
B13: VH4-34+CDR3-IL8_CDR1-Cow_CDR2-Cow / VL1-51 S2A, T5N, P8S, A12G, A13S, P14L IgG (antibody)
VH: B1 VH with I48L, E50S, N52D, H53T, S54G, S56N, N58G
light: B1 light with R46K, T47L, G51D, D52N, T53N
notes: also called BID 36; VH4-34 MutB IL-8 CDR1cow CDR2cow

In this test the target is T1, CXCR1. Kind of test: flow cytometry, supernatant at 5 nM IgG.
As for B1, the “Specific Binding (CXCR1-Cell median AFU / Parental Cell median AFU)” value worked out at 10.

In the case of B2, the “Specific Binding (CXCR1-Cell median AFU / Parental Cell median AFU)” value worked out at 4.

With B3, the “Specific Binding (CXCR1-Cell median AFU / Parental Cell median AFU)” value stood at 4.

On to B4, for which the “Specific Binding (CXCR1-Cell median AFU / Parental Cell median AFU)” value came out at 10.

For B5, the “Specific Binding (CXCR1-Cell median AFU / Parental Cell median AFU)” value was found to be 4.

Regarding B6, the “Specific Binding (CXCR1-Cell median AFU / Parental Cell median AFU)” value stood at 5.

In the case of B7, the “Specific Binding (CXCR1-Cell median AFU / Parental Cell median AFU)” value amounted to 17.

On to B8, for which the “Specific Binding (CXCR1-Cell median AFU / Parental Cell median AFU)” value came out at 5.

Regarding B9, the “Specific Binding (CXCR1-Cell median AFU / Parental Cell median AFU)” value came out at 5.

Turning to B10, the “Specific Binding (CXCR1-Cell median AFU / Parental Cell median AFU)” value came to 4.

Regarding B11, the “Specific Binding (CXCR1-Cell median AFU / Parental Cell median AFU)” value is 15.

Consider B12, for which the “Specific Binding (CXCR1-Cell median AFU / Parental Cell median AFU)” value was 6.

As for B13, the “Specific Binding (CXCR1-Cell median AFU / Parental Cell median AFU)” value was determined as 11.
